# Patent US20240383978A1 (NOVAROCK BIOTHERAPEUTICS, published 2024)
# How the values were obtained:
# [1] = molecular target: human CD137 on the cell surface (human, UniProt Q07011 24-255); assay: cell-based or functional assay
# human Nectin-4 = molecular target: T1, human Nectin-4 (human, UniProt Q96NY8 32-510); assay: immunofluorescence cell binding, CHO cells expressing human Nectin 4, 10 µg/ml per the text
# T1 construct: Expressed on CHO cells; also called CHO-Nectin 4
# T1 sequence: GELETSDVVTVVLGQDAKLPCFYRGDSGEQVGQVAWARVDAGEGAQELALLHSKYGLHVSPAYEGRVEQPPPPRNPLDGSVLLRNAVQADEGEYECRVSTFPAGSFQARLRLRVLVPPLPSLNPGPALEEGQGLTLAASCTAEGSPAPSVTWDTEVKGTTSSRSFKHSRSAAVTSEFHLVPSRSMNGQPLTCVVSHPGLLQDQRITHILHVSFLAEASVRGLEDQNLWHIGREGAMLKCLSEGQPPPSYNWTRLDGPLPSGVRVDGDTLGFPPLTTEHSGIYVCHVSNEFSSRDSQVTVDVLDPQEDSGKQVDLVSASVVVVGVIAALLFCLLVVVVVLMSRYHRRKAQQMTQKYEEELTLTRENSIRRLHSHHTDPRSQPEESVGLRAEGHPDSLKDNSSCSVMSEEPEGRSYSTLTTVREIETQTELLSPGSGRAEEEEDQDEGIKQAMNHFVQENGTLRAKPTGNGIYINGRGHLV
# Description: Bispecific Nectin-4/CD137 binding proteins were generated, produced, and purified as described in Example 4. To examine the binding activity of the BsAbs 1925Ab1, 1925Ab2 and 1925Ab3 to Nectin 4, CHO cells expressing human Nectin 4 were used in an immunofluorescence binding assay. The cells were cultured in F12K media with 10% FBS. On the day of the experiment, the cells were collected, washed, and stained with the binding proteins at 4° C. for 2 hours, followed by fixing cells with paraformaldehyde for 15 minutes at room temperature. The disclosed antibodies 1925Ab1, 1925Ab2 and 1925Ab3 are bispecific antibodies that bind to both Nectin-4 and CD137. Monospecific antibody 1925Ab4 (parental murine antibody) only binds to Nectin-4 and is used as a control antibody. The fixed cells were then washed with PBS three times, followed by staining the cells at room temperature for 1 hour with Alexa Fluor® 488 Goat Anti-Human IgG antibody (Invitrogen, Cat #: A-11013) for detection. The binding signal was assessed by quantifying the fluorescence intensity using iQue Screener PLUS (Sartorius, MI).
# Sequence of human CD137 on the cell surface (Q07011 24-255): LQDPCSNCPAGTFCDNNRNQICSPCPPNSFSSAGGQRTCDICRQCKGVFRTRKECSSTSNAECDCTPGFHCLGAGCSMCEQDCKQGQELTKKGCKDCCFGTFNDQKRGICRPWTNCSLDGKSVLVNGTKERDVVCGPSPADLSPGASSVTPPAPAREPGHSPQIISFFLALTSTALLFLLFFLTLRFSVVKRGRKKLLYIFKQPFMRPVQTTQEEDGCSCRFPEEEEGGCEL
binder,measurement,setting,value
"1901Ab2 (bispecific antibody, human IgG1, kappa, L234A L235A) heavy: not shown light: DIQLTQSPSFLSASVGDRVPITCRASQGISNFLAWYQQKPGKAPELLIHSASTLQSGVPSRFSGSGSGTEFTLTISNLQPQDFATYYCQQVNSYPLTFGGGTKVEIKRTVAAPSVFIFPPSDEQLKSGTASVVCLLNNFYPREAKVQWKVDNALQSGNSQESVTEQDSKDSTYSLSSTLTLSKADYEKHKVYACEVTHQGLSSPVTKSFNRGEC","EC50 of CD137 signaling (NFKB-luc, Jurkat reporter cells co-cultured with NUGC4 cells)",[1],0.047 nM
"1925Ab2 (bispecific antibody, human IgG1, kappa) heavy: not shown light: DIQMTQSPSSLSASVGDRVTITCKASQSVNNDVAWYQQKPGKAPKLLIYYASNRDTGVPSRFSGSGSGTDFTLTISSLQPEDFATYYCQQDYSSPYTFGQGTKLEIKRTVAAPSVFIFPPSDEQLKSGTASVVCLLNNFYPREAKVQWKVDNALQSGNSQESVTEQDSKDSTYSLSSTLTLSKADYEKHKVYACEVTHQGLSSPVTKSFNRGECGGGGSGGGGSGGGGSQVQLVESGGGVVQPGRSLRLSCAASGFTFSNYGMHWVRQAPGKCLEWVAIIWYDGINKYYADSVKGRFTISRDNSKNTLYLQMNSLKAEDTAVYYCARDQDYDILTGYYKEDYFDFWGQGTLVTVSSGGGGSGGGGSGGGGSGGGGSSYELTQPPSVSVSPGQTARITCSGDALPKKYAYWYQQKSGQAPVLVIYEDSKRPSGIPERFSGSSSGTMATLTISGAQVEDEADYYCYSTDSSGNRVFGCGTKLTVL","EC50 of CD137 signaling (NFKB-luc, Jurkat reporter cells with target cells)",[1],0.08 nM
"1912Ab3 (bispecific antibody, human IgG1, kappa, L234A L235A) heavy: not shown light: DIQLTQSPSFLSASVGDRVTITCRASQGISSYLAWYQQKPGKAPKLLIYAASTLQSGVPSRFSGSGSGTEFTLAVSSLQPEDFATYYCQQLNSYPYTFGQGTKLEIKRTVAAPSVFIFPPSDEQLKSGTASVVCLLNNFYPREAKVQWKVDNALQSGNSQESVTEQDSKDSTYSLSSTLTLSKADYEKHKVYACEVTHQGLSSPVTKSFNRGEC","EC50 of CD137 signaling (NFKB-Luc, Jurkat reporter cells co-cultured with NEC8 WT cells)",[1],0.2 nM
"1901Ab3 (bispecific antibody, human IgG1, kappa, L234A L235A) heavy: not shown light: DIQLTQSPSFLSASVGDRVPITCRASQGISNFLAWYQQKPGKAPELLIHSASTLQSGVPSRFSGSGSGTEFTLTISNLQPQDFATYYCQQVNSYPLTFGGGTKVEIKRTVAAPSVFIFPPSDEQLKSGTASVVCLLNNFYPREAKVQWKVDNALQSGNSQESVTEQDSKDSTYSLSSTLTLSKADYEKHKVYACEVTHQGLSSPVTKSFNRGECGGGGSGGGGSGGGGSQVQLVESGGGVVQPGRSLRLSCAASGFTFSNYGMHWVRQAPGKCLEWVAIIWYDGINKYYADSVKGRFTISRDNSKNTLYLQMNSLKAEDTAVYYCARDQDYDILTGYYKEDYFDFWGQGTLVTVSSGGGGSGGGGSGGGGSGGGGSSYELTQPPSVSVSPGQTARITCSGDALPKKYAYWYQQKSGQAPVLVIYEDSKRPSGIPERFSGSSSGTMATLTISGAQVEDEADYYCYSTDSSGNRVFGCGTKLTVL","EC50 of CD137 signaling (NFKB-luc, Jurkat reporter cells co-cultured with NUGC4 cells)",[1],0.1 nM
"1925Ab1 (bispecific antibody, human IgG1, kappa, L234A L235A) heavy: not shown light: DIQMTQSPSSLSASVGDRVTITCKASQSVNNDVAWYQQKPGKAPKLLIYYASNRDTGVPSRFSGSGSGTDFTLTISSLQPEDFATYYCQQDYSSPYTFGQGTKLEIKRTVAAPSVFIFPPSDEQLKSGTASVVCLLNNFYPREAKVQWKVDNALQSGNSQESVTEQDSKDSTYSLSSTLTLSKADYEKHKVYACEVTHQGLSSPVTKSFNRGEC","EC50 of CD137 signaling (NFKB-luc, Jurkat reporter cells with target cells)",[1],0.027 nM
"1925Ab3 (bispecific antibody, human IgG1, kappa, L234A L235A) heavy: not shown light: DIQMTQSPSSLSASVGDRVTITCKASQSVNNDVAWYQQKPGKAPKLLIYYASNRDTGVPSRFSGSGSGTDFTLTISSLQPEDFATYYCQQDYSSPYTFGQGTKLEIKRTVAAPSVFIFPPSDEQLKSGTASVVCLLNNFYPREAKVQWKVDNALQSGNSQESVTEQDSKDSTYSLSSTLTLSKADYEKHKVYACEVTHQGLSSPVTKSFNRGEC","EC50 of CD137 signaling (NFKB-luc, Jurkat reporter cells with target cells)",[1],0.049 nM
1912Ab4 (bispecific antibody) heavy: not shown light: AIQLTQSPSSLSASVGDRVTITCRASQGINSWLAWYQQKPEKAPKSLIYAASSLQSGVPSRFSGSGSGTDFTLTISSLQPEDFATYYCQQYNFYPYTFGQGTKLEIIRTVAAPSVFIFPPSDEQLKSGTASVVCLLNNFYPREAKVQWKVDNALQSGNSQESVTEQDSKDSTYSLSSTLTLSKADYEKHKVYACEVTHQGLSSPVTKSFNRGEC,"EC50 of CD137 signaling (NFKB-Luc, Jurkat reporter cells co-cultured with NEC8 WT cells)",[1],0.18 nM
"1925Ab4 (antibody, human IgG1, kappa, V domains shown, Parental murine anti-Nectin-4 antibody; also called parental murine monoclonal antibody; monospecific anti-Nectin-4 control antibody) VH: QVQLQQSGPELVKPGASVRISCKASGYTFTTYYIHWVKQRPGQGLEWIGWIYPGNVNTKYTENFKDKATLTADKSSSTAYMQLSSLTSEDSAVYFCARGLYYFDFWGQGTTLTVSS VL: SIVMTQTPKFLLVSAGDRVTITCKASQSVNNDVAWYQQKPGQSPKLLIYYASNRDTGVPDRFTGSGFGTDFTFTISSVQAEDLAVYFCQQDYSSPYTFGGGTKLEIKR",binding result,human Nectin-4,binds
